Assay results published in patent US20170253656A1.
Numbering of substitutions follows the chain as printed.

B1: 1447-G01 scFv-Fc (Fc fusion, part only; not given: Fc portion, part only)
chain, part: EVQLLESGGGLVQPGGSLRLSCAASGFTFNTSDMSWVRQAPGKGLEWVGIINGSGGATNYADSVKGRFTISRDNSKNTLYLQMNSLRAEDTAVYYCAKYENEMEVSMDYWGQGTLVTVSSGGGGSGGGGSGGGGSEIVLTQSPGTLSLSPGERATLSCRASQSVSSRELGWYQQKPGQAPRLLIYGASSRATGIPDRFSGSGSGTDFTLTISRLEPEDFAVYYCQQQCSWPPTFGQGTKVEIK
B2: 1447-E08 scFv-Fc (Fc fusion, part only; not given: Fc portion, part only)
chain, part: EVQLLESGGGLVQPGGSLRLSCAASGFTFNDTDMSWVRQAPGKGLEWVGMINGAGGASFYADSVRGRFTISRDNSKNTLYLQMNSLRAEDTAVYYCAKFENQWEVTFDYWGQGTLVTVSSGGGGSGGGGSGGGGSEIVLTQSPGTLSLSPGERATLSCRASQRVAGIDLSWYQQKPGQAPRLLIYGASSRATGIPDRFSGSGSGTDFTLTISRLEPEDFAVYYCQQHNTTPPTFGQGTKVEIK
B3: 1251-A03 heavy chain paired with VL SEQ ID NO: 272 (antibody, V domains shown)
VH: QVQLVESGGGVVQPGRSLRLSCAASGFAFSDHGMHWVRQAPDKGLEWVAVIWYDGSHKIYADSVKGRFTISRDNSKNTLYLQMNSLRAEDTAVYYCARGGSLAGGAVYGTDVWGQGTTVTVSS
VL: DIQMTQSPSSLSASVGDRVTITCRASQGISSWLAWYQQKPEKAPKSLIYAASSLQSGVPSRFSGSGSGTDFTLTISSLQPEDFATYYCQQYNSYPLTFGGGTKVEIK
B4: 1251-B08 heavy chain paired with VL SEQ ID NO: 272 (antibody, V domains shown)
VH: B3 VH with A28N, H32Y, H57I, K58S, I59Y, S101T, L102V, A103E, G104H, T117A
VL: B3 VL
B5: 1251-F06 heavy chain paired with VL SEQ ID NO: 272 (antibody, V domains shown)
VH: QVQLVESGGGVVQPGRSLRLSCAASGFTFSSFGMHWVRQAPDKGLEWVAVIWYDGSNEYYADSVKGRFTISRDNSKNTLYLQMNSLRAEDTAVYYCARGGSLVTRGVYGLDVWGQGTTVTVSS
VL: B3 VL
B6: 1251-A06 heavy chain paired with VL SEQ ID NO: 272 (antibody, V domains shown)
VH: QVQLVESGGGVVQPGRSLRLSCAASGFDFSSYGMHWVRQAPDKGLEWVAVIWDDGSDRYYADSVKGRFTISRDNSKNTLYLQMNSLRAEDTAVYYCARGGTRVLGAIHGTDVWGQGTTVTVSS
VL: B3 VL
B7: 1337-A06 light chain paired with VH 1251-A06 (SEQ ID NO: 236) (Fab, V domains shown)
VH: B6 VH
VL: B3 VL with G28D, S30G, L33V, A50G, S52D, S53R
B8: 1337-A08 light chain paired with VH 1251-A06 (SEQ ID NO: 236) (Fab, V domains shown)
VH: B6 VH
VL: B3 VL with G28D, S30G, L33V, A51S, S52D
B9: 1251-D02 heavy chain paired with VL SEQ ID NO: 272 (antibody, V domains shown)
VH: B6 VH with D28S, S30A, Y32H
VL: B3 VL
B10: 1251-D06 heavy chain paired with VL SEQ ID NO: 272 (antibody, V domains shown)
VH: QVQLVESGGGVVQPGRSLRLSCAASGFSFGSYGMHWVRQAPDKGLEWVAVVWYDGSKTIYADSVKGRFTISRDNSKNTLYLQMNSLRAEDTAVYYCARGGTLVRGAVYGLDVWGQGTTVTVSS
VL: B3 VL
B11: 1251-D09 heavy chain paired with VL SEQ ID NO: 272 (antibody, V domains shown)
VH: B6 VH with D28S, D53Y, G55A, D57I, Y59K, D62G, R102V, V103E, L104R, H108Y
VL: B3 VL
B12: 1251-A02 heavy chain paired with VL SEQ ID NO: 272 (antibody, V domains shown)
VH: B3 VH
VL: B3 VL
B13: 1251-F07 heavy chain paired with VL SEQ ID NO: 272 (antibody, V domains shown)
VH: B6 VH with D28T, Y32H, D57N, R58E, Y59V, V103I, L104R, A106L, I107R, H108Y
VL: B3 VL
B14: 1337-A10 light chain paired with VH 1251-A06 (SEQ ID NO: 236) (Fab, V domains shown)
VH: B6 VH
VL: B3 VL with L33V, A50G, A51S, S53R, S93T
B15: 1251-E06 heavy chain paired with VL SEQ ID NO: 272 (antibody, V domains shown)
VH: QVQLVESGGGVVQPGRSLRLSCAASGFTFDSYGMHWVRQAPDKGLEWVAVIWYDGSNKVYADSVKGRFTISRDNSKNTLYLQMNSLRAEDTAVYYCARGGMVGQGAMFGLDVWGQGTTVTVSS
VL: B3 VL
B16: 1337-A09 light chain paired with VH 1251-A06 (SEQ ID NO: 236) (Fab, V domains shown)
VH: B6 VH
VL: B3 VL with S30G, S52D, S53R, N92H, S93T
B17: 1251-G02 heavy chain paired with VL SEQ ID NO: 272 (antibody, V domains shown)
VH: B6 VH with D28T, D53H, D57K, R58D, T101Q, R102L, V103D, L104H, H108Y, T110L
VL: B3 VL
B18: 1251-B09 heavy chain paired with VL SEQ ID NO: 272 (antibody, V domains shown)
VH: B10 VH with S28N, G30S, S31D, V51T, K57R, T58E, I59Y, R104H, V107L, L110N
VL: B3 VL
B19: 1337-A05 light chain paired with VH 1251-A06 (SEQ ID NO: 236) (Fab, V domains shown)
VH: B6 VH
VL: B3 VL with S30G, S31R, L33V, A50G, S52D, S53R
B20: 1251-C03 heavy chain paired with VL SEQ ID NO: 272 (antibody, V domains shown)
VH: QVQLVESGGGVVQPGRSLRLSCAASGFNFSSYGMHWVRQAPDKGLEWVAVIWYDGSIKNYADSVKGRFTISRDNSKNTLYLQMNSLRAEDTAVYYCARGGALMRGEFSGHDVWGQGTTVTVSS
VL: B3 VL
B21: 1337-A07 light chain paired with VH 1251-A06 (SEQ ID NO: 236) (Fab, V domains shown)
VH: B6 VH
VL: B3 VL with L33V, A50G, S53R, N92H, S93T
B22: 1337-A04 light chain paired with VH 1251-A06 (SEQ ID NO: 236) (Fab, V domains shown)
VH: B6 VH
VL: B3 VL with G28D, S30G, S31R, L33V, A50G, S93T
B23: 1193-E06b (scFv)
scFv: EVQLLESGGGLVQPGGSLRLSCAASGFTFNNTDMSWVRQAPGKGLEWVGIINGSGGATNYADSVKGRFTISRDNSKNTLYLQMNSLRAEDTAVYYCAKFENEWEVSMDYWGQGTLVTVSSGGGGSGGGGSGGGGSEIVLTQSPGTLSLSPGERATLSCRASQSVSSSYLAWYQQKPGQAPRLLIYGASSRATGIPDRFSGSGSGTDFTLTISRLEPEDFAVYYCQQHYTTPPTFGQGTKVEIK
B24: 1193-H04b (scFv)
scFv: EVQLLESGGGLVQPGGSLRLSCAASGFTFTSSWMSWVRQAPGKGLEWVGIINGYNGITYYADSVKGRFTISRDNSKNTLYLQMNSLRAEDTAVYYCAKPSAPGARRFDYWGQGTLVTVSSGGGGSGGGGSGGGGSEIVLTQSPGTLSLSPGEATLSCRASQSVSSSYLAWYQQRPGQAPRLLIYGASSRATGIPDRFSGSGSGTDFTLTISRLEPEDFAVYYCQQHYTTPPTFGQGTKVEIK
B25: 1193-C08 (scFv)
scFv: EVQLLESGGGLVQPGGSLRLSCAASGFTFNNNWMSWVRQAPGKGLEWVGIINGDDGYTYYADRVKGRFTIIRDNSKNTLYLQMNSLRAEDTAVYYCAKVALGRPRRFDYWGQGTLVTVSSGGGGSGGGGSGGGGSEIVLTQSPGTLSLTPGERATLSCRASQSVSSNYLAWYQQKPGQAPRLLIYGASSRATGIPDRFSGSGSGTDFTLTISRLEPEDFAMYYCQQHYTTPPTFGQGTKVEIK
B26: 1193-B06 (scFv)
scFv: EVQLLESGGGLVQPGGSLRLSCAASGFTFTGNWMSWVRQAPGKGLEWVGIIYGTSGATYYADSVKGRFTISRDNSKNTLYLQMNSLRAEDTAVYYCAKPSMSGSRGFDYWGQGTLVTVSSGGGGSGGGGSGGGGSEIVLTQSPGTLSLSPGERATLSCRAGQSVSSSYLAWYQQKPGQAPRLLIYGASSRATGIPDRFSGSGSGTDFTLTISRLEPEDFAVYYCQQHYTTPPTFGQGTKVEIK

target: CD74 on CD74 positive SU-DHL-6 cells (UniProt P04233); test: cell-based or functional assay
Sequence (P04233 whole entry): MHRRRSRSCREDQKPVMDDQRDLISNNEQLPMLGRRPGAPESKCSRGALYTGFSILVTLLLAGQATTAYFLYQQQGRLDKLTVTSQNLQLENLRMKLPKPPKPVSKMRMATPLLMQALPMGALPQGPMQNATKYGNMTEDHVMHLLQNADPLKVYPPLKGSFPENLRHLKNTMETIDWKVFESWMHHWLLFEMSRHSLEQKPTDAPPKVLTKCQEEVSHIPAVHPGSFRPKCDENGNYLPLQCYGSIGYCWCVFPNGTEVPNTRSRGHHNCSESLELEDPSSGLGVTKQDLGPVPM

| Binder | 2nd ADC Cell Killing IC50 |
| --- | --- |
| B1 | 650 pM |
| B2 | 2560 pM |

target: CD74 on CD74 positive SU-DHL-6 cells, P04233; test: cell-based or functional assay
Sequence (P04233 whole entry): as above

| Binder | 2nd ADC Cell Killing IC50 |
| --- | --- |
| B3 | 10 pM |
| B4 | 7 pM |
| B5 | 17 pM |
| B6 | 0.2 pM |
| B7 | 4 pM |
| B8 | 7 pM |
| B9 | 14 pM |
| B10 | 4 pM |
| B11 | 7 pM |
| B12 | 9 pM |
| B13 | 9 pM |
| B14 | 6 pM |
| B15 | 15 pM |
| B16 | 4 pM |
| B17 | 13 pM |
| B18 | 7 pM |
| B19 | 4 pM |
| B20 | 50 pM |
| B21 | 4 pM |
| B22 | 4 pM |
| B23 | 8670 pM |
| B24 | 14800 pM |
| B25 | 8660 pM |
| B26 | 10300 pM |
